Data taken from patent US20030147861A1, “Compounds and methods for the modulation of immune responses” (Genesis Research and Development Corporation Limited, priority 2001, published 2003).
“Also recorded” adds a separate entry of the source.

How the values were obtained:
[1] = tested on: TLR2, TLR4 and CD14 on THP-1 cells (IL-12p40, TNFα, IL-10 production); test: Cytokine production by THP-1 cells pre-treated with mAbs to TLR2, TLR4 or CD14 and cultured with M. vaccae derivatives (ELISA); assay type: cell-based, human; conditions: mAb pre-treatment 60 minutes, 0.32-1000 μg/mL; stimulus 5 μg/mL, 24 hours
Description: In subsequent experiments, the effect of antibodies to TLR2, TLR4 and CD14 on the production of IL-12p40, IL-10 and TNF-α in THP-1 cells in response to M. vaccae derivatives was examined as follows.
Prior to culture with M. vaccae derivatives, 50 μL of THP-1 cells in cRPMI-10 were pre-treated in duplicate microplate wells with 50 μL of serially diluted Functional Grade mabs to human TLR2 (clone TL2.1, IgG2a isotype, eBioscience cat. no. 16-9922-82), TLR4 (clone HTA125, IgG2a isotype, eBioscience cat. no. 16-9927-82), or CD14 (clone RM052, IgG2a isotype, Coulter cat. no. IM0643), with a cocktail of all three antibodies or with control mAb (clone AcV1, IgG2a isotype, eBioscience cat. no. 16-4724-85), with each mAb used at a final concentration of 1000 μg/mL, 200 μg/mL, 40 μg/mL, 8.0 μg/mL, 1.60 μg/mL, or 0.32 μg/mL, or with no mAb. Pretreatment of cells with mAbs was for 60 minutes in a water-jacketed, humidified incubator at 37° C. supplied with 5% CO2 in air.
At the end of the 24-hour incubation period, the microplates were centrifuged at 200×g for 5 minutes and the supernatants collected and transferred to a sterile 96-well round-bottom plate.
IL-12p40, TNFα, and IL-10 content in the microculture supernatants was determined by sandwich ELISA using commercially available sets according to the manufacturer's recommendations. […]

[2] = tested on: CD83 and CD80 on purified dendritic cells; test: Dendritic cell maturation: CD83 and CD80 expression (flow cytometry); assay type: cell-based; conditions: GV-23 20 μg/ml or LPS 10 μg/ml, 20 hour, mean ± SD (n = 3)
Description: The effect of the recombinant M. vaccae protein GV-23 on the maturation and function of dendritic cells was examined as follows.
Purified dendritic cells (5×10^4−10^5 cells/ml) were stimulated with GV-23 (20 μg/ml) or LPS (10 μg/ml) as a positive control. Cells were cultured for 20 hour and then analyzed for CD83 (a maturation marker) and CD80 expression by flow cytometry. Non-stimulated cells were used as a negative control.

[3] = tested on: CD40, CD80 and CD86 on monocytes; test: CD40, CD80 and CD86 expression on monocytes (3 color flow cytometry); assay type: cell-based, human; conditions: 20 ug/ml, 48 hours, vs non-stimulated cells
Source text: (§1) Stimulated cells were harvested and analyzed for up-regulation of CD40, CD80 and CD86 using 3 color flow cytometric analysis. Tables 16, 17 and 18 show the fold increase in mean fluorescence intensity from control (non-stimulated cells) for dendritic cells, monocytes, and B cells, respectively.

[4] = tested on: IFNγ production by lymph node cells; test: IFNγ production by lymph node cells from GV protein-immunized mice (enzyme-linked immunoassay); assay type: cell-based, female BALB/cByJ mice; conditions: lymph node cells of mice immunized with the same GV protein
Description: (§2) The immunogenicity of Mycobacterium vaccae recombinant proteins (referred to herein as GV recombinant proteins) was tested by injecting female BALB/cByJ mice in each hind foot-pad with 10 μg of recombinant GV proteins emulsified in incomplete Freund's adjuvant (IFA). Control mice received phosphate buffered saline in IFA. The draining popliteal lymph nodes were excised 10 days later and the cells obtained therefrom were stimulated with the immunizing GV protein and assayed for proliferation by measuring the uptake of tritiated thymidine. The amount of interferon gamma (IFNγ) produced and secreted by these cells into the culture supernatants was assayed by standard enzyme-linked immunoassay.

[5] = tested on: popliteal lymph node cells; test: Proliferation of lymph node cells from GV protein-immunized mice; assay type: cell-based, female BALB/cByJ mice; conditions: lymph node cells of mice immunized with 10 μg of the same GV protein in IFA
Description: as §2

[6] = tested on: IL-1β, TNF-α, IL-12 and IFN-γ production in PBMC; test: Cytokine production in PBMC from normal donors (ELISA); assay type: cell-based, human
[7] = tested on: CD40, CD80 and CD86 on B cells; test: CD40, CD80 and CD86 expression on B cells (3 color flow cytometry); assay type: cell-based, human; conditions: 20 ug/ml, 48 hours, vs non-stimulated cells
Source text: as §1

[8] = tested on: CD40, CD80 and CD86 on dendritic cells; assay type: cell-based, human
[9] = tested on: dendritic cells with allogeneic T cells; test: Dendritic cell mixed lymphocyte reaction (MLR) assay; assay type: cell-based; conditions: 20 μg/ml for 18-20 hours, then allogeneic T cells
Description: The ability of GV-23 to enhance dendritic cell function as antigen presenting cells was determined by mixed lymphocyte reaction (MLR) assay. Purified dendritic cells were cultured in medium alone or with GV-23 (20 μg/ml) for 18-20 hours and then stimulated with allogeneic T cells (2×10^5 cells/well). After 3 days of incubation, (^3H)-thymidine was added. Cells were harvested 1 day later and the uptake of radioactivity was measured.

[10] = tested on: CD69 on αβT cells, γδT cells and NK cells; assay type: cell-based, human
[11] = Dose of GV protein used in vitro 2 μg/ml
[12] = Dose of GV protein used in vitro 50 μg/ml
[13] = dendritic cells, 20 ug/ml, 48 hours, vs non-stimulated cells

TLR2 mAb: Functional Grade mAb to human TLR2, clone TL2.1, IgG2a isotype (eBioscience) [reference compound]
inhibition of M. vaccae-, AVAC- and DD-M. vaccae-induced production of IL-12p40 by THP-1 cells [1]: inhibited by TLR2 and CD14 mAbs in a dose-dependent fashion

B1: GV-23: recombinant M. vaccae antigen, amino acid sequence SEQ ID NO: 38 (protein, listed as Mycobacterium vaccae)
chain: VIEIDHVTKRFGDYLAVADADFSIAPGEFFSMLGPSGCGKTTTLRMIAGFETPTEGAIRLEGADVSRTPPNKRNVNTVFQHYALFPHMTVWDNVAYGPRSKKLGKGEVRKRVDELLEIVRLTEFAERRPAQLSGGQQQRVALARALVNYPSALLLDEPLGALDLKLRHVMQFELKRIQREVGITFIYVTHDQEEALTMSDRIAVMNAGNVEQIGSPTEIYDRPATVFVASFIGQANLWAGRCTGRSNRDYVEIDVLGSTLKARPGETTIEPGGHATLMVRPERIRVTPGSQDAPTGDVACVRATVTDLTFQGPVVRLSLAAPDDSTVIAHVGPEQDLPLLRPGDDVYVSWAPEASLVLPGDDIPTTEDLEEMLDDS
% CD80-positive dendritic cells ([2]; control 9 ± 6.6): 24.7 ± 14.2% | % CD83-positive dendritic cells ([2]; control 15 ± 8): 35 ± 13.2% | CD40 expression, fold increase in mean fluorescence intensity from control [3]: 2.3 fold | CD80 expression, fold increase in mean fluorescence intensity from control [3]: 1.5 fold | CD86 expression, fold increase in mean fluorescence intensity from control [3]: 0.7 fold | IFNγ [4, 11]: 9.17 ± 1.51 ng/mL | IFNγ ([4]; Dose of GV protein used in vitro 10 μg/ml): 30.70 ± 4.48 ng/mL | IFNγ [4, 12]: 59.67 ± 14.88 ng/mL | Proliferation (cpm) ([5]; Dose of GV protein used in vitro 0.08 μg/ml): 7,393 ± 2,188 cpm | Proliferation (cpm) [5, 11]: 15,423 ± 2,858 cpm | Proliferation (cpm) [5, 12]: 35,598 ± 1,330 cpm | production of IL-1β, TNF-α, IL-12 and IFN-γ by PBMC [6]: stimulate the production of IL-1β, TNF-α and IL-12; also recorded: induced significant levels of the four cytokines examined | IL-1β production by PBMC relative to known adjuvants ([6]; GV-23 20 μg/ml): higher levels of IL-1β production being seen with GV-23 than with any of the known adjuvants | CD40 expression, fold increase in mean fluorescence intensity from control [7]: 1.2 fold | CD80 expression, fold increase in mean fluorescence intensity from control [7]: 1.1 fold | CD86 expression, fold increase in mean fluorescence intensity from control [7]: 1.4 fold | CD40, CD80 and CD86 expression in dendritic cells, comparison with adjuvants [8]: significant up-regulation of CD40, CD80 and CD86 | CD40, CD80 and CD86 expression on dendritic cells ([8]; 20 ug/ml, 48 hours, T cell-depleted PBMC): highest levels of expression | CD40 expression, fold increase in mean fluorescence intensity from control [8, 13]: 6.0 fold | CD80 expression, fold increase in mean fluorescence intensity from control [8, 13]: 4.5 fold | CD86 expression, fold increase in mean fluorescence intensity from control [8, 13]: 1.8 fold | dendritic cell mixed lymphocyte reaction ((3H)-thymidine uptake) [9]: enhances dendritic cell mixed lymphocyte reaction | CD69 expression on NK cells, comparison with adjuvants [10]: induced CD69 expression on NK cells | percentage of αβT cells expressing CD69 ([10]; PBMC from normal donors, 20 ug/ml, 24 hours, control 3.8): 5.8% | percentage of NK cells expressing CD69 ([10]; PBMC from normal donors, 20 ug/ml, 24 hours, control 4.8): 46.8% | percentage of γδT cells expressing CD69 ([10]; PBMC from normal donors, 20 ug/ml, 24 hours, control 6.2): 10.0%
